From publication PMC8604728

B1: unnamed (parent)
chain 1: DYMGWMDF
chain 2: MDVVDSLLVNGSNITPPCELGLENETLFCLDQPRPSKEWQPAVQILLYSLIFLLSVLGNTLVITVLIRNKRMRTVTNIFLLSLAVSDLMLCLFCMPFNLIPNLLKDFIFGSAVCKTTTYFMGTSVSVSTFNLVAISLERYGAICKPLQSRVWQTKSHALKVIAATWCLSFTIMTPYPIYSNLVPFTKNNNQTANMCRFLLPNDVMQQSWHTFLLLILFLIPGIVMMVAYGLISLELYQGIKFEASQKKSAKERKPSTTSSGKYEDSDGCYLQKTRPPRKLELRQLSTGSSSRANRIRSNSSAANLMAKKRVIRMLIVIVVLFFLCWMPIFSANAWRAYDTASAERRLSGTPISFILLLSYTSSCVNPIIYCFMNKRFRLGFMATFPCCPNPGPPGARGEVGEEEEGGTTGASLSRFSYSHMSASVPPQ

Variants of: B1
Test: radiolabeled ligand-binding assay (competition with unlabeled CCK-8)
Conditions: upper plateau of the fitted competition curve at the lowest CCK-8 concentration (log [CCK-8] = -12), read off a plot
Work on chain 2 V125A yielded a percent of parent of 75 % WT. With chain 2 M121A the percent of parent was 230 % WT. In the case of chain 2 H210A, the percent of parent is reported as 70 % WT. chain 2 F185A showed a percent of parent of 15 % WT. chain 2 Y360A was tested, and the percent of parent was 28 % WT. chain 2 K105A was tested, and the percent of parent was 50 % WT. For chain 2 M195A, the percent of parent was 30 % WT. With chain 2 T118A the percent of parent was 110 % WT.
